# Laboratory results reported in patent US20060287320A1, “Preparation of thioarabinofuranosyl compounds and use thereof” (Southern Research Institute, priority 1998, published 2006).
# B1: dCyd Deaminase Activity Isolated from Human Placenta (Homo sapiens) (protein)
# chain: MAQKRPACTLKPECVQQLLVCSQEAKKSAYCPYSHFPVGAALLTQEGRIFKGCNIENACYPLGICAERTAIQKAVSEGYKDFRAIAIASDMQDDFISPCGACRQVMREFGTNWPVYMTKPDGTYIVMTVQELLPSSFGPEDLQKTQ
# B2: cytidine deaminase (Homo sapiens) (protein)
# chain: B1 chain
# Key:
# Test in all cases: purified protein, by the assay type
# [1] = substrate: Nc1ccn([C@H]2C[C@H](O)[C@@H](CO)O2)c(=S)n1; details: other: dCyd deaminase activity from human placenta, pH 7.4, mean and standard deviation from 3 experiments
# Method: (§1) Reactions were carried out in solutions containing 20 mM potassium phosphate (pH 7.4), 100 mM KCl, various concentrations of radiolabeled nucleoside, and enzyme. The reactions were stopped with acid, the substrate was separated from the product by paper chromatography, and the radioactivity in each were determined. The kinetic constants were determined from linear double-reciprocal plots of 1/velocity versus 1/concentration of the substrate. The best line was determined by linear regression from at least 5 datum points, and the Km and Vmax were determined from the x and y intercepts. The data presented are the mean and standard deviation from 3 separate experiments.
# [2] = substrate: Nc1ccn([C@@H]2S[C@H](CO)[C@@H](O)[C@@H]2O)c(=O)n1
# [3] = substrate: Nc1ccn([C@H]2C[C@H](O)[C@@H](CO)O2)c(=O)n1; details: other: dCyd deaminase activity from human placenta, pH 7.4, mean and standard deviation from 3 experiments
# Method: as §1
# [4] = other: dCyd deaminase activity from human placenta, pH 7.4, mean and standard deviation from 3 experiments
Protein,Km [1] [µM],Vmax [1] [µmol/min/mg],"Km [2, 4] [µM]","Vmax [2, 4] [µmol/min/mg]",Km [3] [µM],Vmax [3] [µmol/min/mg],"Km ([2]; other: cytidine deaminase, radioactive substrates) [µM]"
B1,111 ± 77,3.7e-05,2944 ± 1023,2.1e-05,23 ± 2.7,1.3e-05,
B2,,,,,,,2570
